According to patent US5451506A, “Oncostatin M and novel compositions having anti-neoplastic activity” (Oncogen Limited Partnership, priority 1993, dated 1995):

Columns and labels:
[1] = target: T1, Oncostatin M receptor on A375 or A549 cells (Homo sapiens, UniProt P40189+Q99650); test: Specificity of Oncostatin M receptor: competition for binding of 125I-Oncostatin M; conditions: 125I-Oncostatin M 30-50 ng/ml
T1 construct: endogenous in cells; host or cells: A375 or A549 cells (intact monolayers)
T1 sequence (Q99650 28-979): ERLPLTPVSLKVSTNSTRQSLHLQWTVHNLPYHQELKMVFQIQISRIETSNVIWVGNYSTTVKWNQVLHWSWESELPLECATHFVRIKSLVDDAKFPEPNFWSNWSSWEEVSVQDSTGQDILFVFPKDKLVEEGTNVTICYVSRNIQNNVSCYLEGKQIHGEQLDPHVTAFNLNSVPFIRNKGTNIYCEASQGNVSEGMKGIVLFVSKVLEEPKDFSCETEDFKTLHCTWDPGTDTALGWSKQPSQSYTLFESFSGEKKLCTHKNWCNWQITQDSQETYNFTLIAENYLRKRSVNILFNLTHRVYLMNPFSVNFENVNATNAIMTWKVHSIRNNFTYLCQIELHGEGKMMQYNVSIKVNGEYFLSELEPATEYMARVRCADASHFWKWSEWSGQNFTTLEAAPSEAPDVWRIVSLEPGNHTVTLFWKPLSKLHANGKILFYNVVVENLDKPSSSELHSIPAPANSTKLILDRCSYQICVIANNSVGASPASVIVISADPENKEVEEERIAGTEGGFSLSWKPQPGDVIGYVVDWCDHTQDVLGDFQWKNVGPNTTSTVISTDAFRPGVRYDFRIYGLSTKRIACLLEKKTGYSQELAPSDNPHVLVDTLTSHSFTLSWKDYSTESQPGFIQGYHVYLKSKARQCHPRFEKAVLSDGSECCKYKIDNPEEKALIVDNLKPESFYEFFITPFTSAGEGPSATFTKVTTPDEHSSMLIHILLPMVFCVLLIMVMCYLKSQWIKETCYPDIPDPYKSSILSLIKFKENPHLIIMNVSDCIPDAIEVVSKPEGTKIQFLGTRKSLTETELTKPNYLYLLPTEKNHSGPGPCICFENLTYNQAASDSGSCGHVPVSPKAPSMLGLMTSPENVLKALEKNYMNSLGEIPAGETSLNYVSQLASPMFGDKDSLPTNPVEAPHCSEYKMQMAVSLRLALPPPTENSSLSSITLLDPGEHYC
T1 sequence (P40189 23-918): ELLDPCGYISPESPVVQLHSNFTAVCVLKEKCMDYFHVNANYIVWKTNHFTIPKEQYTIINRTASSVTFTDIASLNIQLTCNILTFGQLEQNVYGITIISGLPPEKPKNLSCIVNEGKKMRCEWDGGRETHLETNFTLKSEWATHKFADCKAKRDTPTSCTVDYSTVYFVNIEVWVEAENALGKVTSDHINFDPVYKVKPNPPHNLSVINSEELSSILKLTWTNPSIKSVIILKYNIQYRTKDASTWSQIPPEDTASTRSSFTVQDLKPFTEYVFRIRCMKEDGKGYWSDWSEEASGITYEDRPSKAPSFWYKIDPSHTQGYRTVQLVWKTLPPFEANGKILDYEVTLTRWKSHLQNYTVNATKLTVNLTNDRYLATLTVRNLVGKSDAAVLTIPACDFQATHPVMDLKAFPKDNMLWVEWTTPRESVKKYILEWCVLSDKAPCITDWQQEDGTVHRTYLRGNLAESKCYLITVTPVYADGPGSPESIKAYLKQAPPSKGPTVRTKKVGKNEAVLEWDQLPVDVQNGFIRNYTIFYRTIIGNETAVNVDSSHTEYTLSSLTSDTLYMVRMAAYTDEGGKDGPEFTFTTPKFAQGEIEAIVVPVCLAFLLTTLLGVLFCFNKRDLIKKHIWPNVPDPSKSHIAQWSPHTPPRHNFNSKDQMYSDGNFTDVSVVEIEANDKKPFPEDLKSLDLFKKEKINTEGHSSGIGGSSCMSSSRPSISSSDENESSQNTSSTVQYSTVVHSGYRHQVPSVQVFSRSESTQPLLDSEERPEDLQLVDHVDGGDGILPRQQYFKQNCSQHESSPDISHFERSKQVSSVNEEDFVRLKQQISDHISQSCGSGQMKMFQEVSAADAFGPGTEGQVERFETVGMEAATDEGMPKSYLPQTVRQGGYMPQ
Protocol: The cell line of interest was plated in 48-well plates at a density of 2×10^5 cells/well and maintained at 37° C. for 16-24 hours before initiation of the assay. Cell monolayers were then washed once with Binding buffer (Linsley et al., Biochemistry (1986) 25:2978-2986). To measure total binding, ^125 I-Oncostatin M was added at concentrations ranging from 0.5-100 ng/ml. To measure non-specific binding, unlabeled Oncostatin M was added simultaneously with the ^125 I-Oncostatin M to replicate plates at a concentration 20- to 100-fold higher than the concentration of ^125 I-Oncostatin M. Binding was allowed to proceed for 2-5 hours at 23°, then the monolayers were washed four times with Binding Buffer, cell-bound radioactivity was solubilized with 1N NaOH and was counted in a gamma counter. Specific binding was calculated by subtracting the non-specific binding from total binding. The dissociation constant (Kd) and binding capacity was determined by Scatchard analysis (Scatchard, Ann. N.Y. Acad. Sci. (1949) 51:660).
The specificity of the Oncostatin M receptor was determined by evaluating the ability of several other polypeptide growth factors to compete for binding of ^125 I-Oncostatin M (at 30-50 ng/ml) to A375 or A549 cells.

A375 cells [2] = test: Growth inhibition assay (A375 proliferation; synergy tests); format: cell-based, human
Protocol: A375 melanoma cells (4×10^3 cells/50 μl), Mv1Lu mink lung epithelial cells (3.5×10^3 cells/50 μl), or other cell line of interest at an appropriate cell density were subcultured for four hours on flat-bottomed 96-well tissue culture plates (Costar 3596, Cambridge, Mass.) in growth medium comprising Dulbecco's modified Eagle's medium (DMEM), supplemented with 10% heat-in-activated fetal bovine serum, and P/S. Test samples to be assayed for growth inhibition were diluted in growth medium and assayed in triplicate with 50 μl of the diluted sample added to each well. The cells were incubated for 72 hours at 37° C.
The growth inhibitory activity of highly purified TGF-β1, recombinant gamma-interferon (rIFN-γ), and Oncostatin M on A375 cells was determined, and possible synergy between TGF-β1 and Oncostatin M, TGF-β1 and rIFN-γ, and Oncostatin M and rIFN-γ in inhibiting A375 proliferation was tested. […] is expressed in units of Mv1Lu growth inhibitory activity, rIFN-γ in units of anti-viral activity and Oncostatin M in units of A375 growth inhibitory activity. Concentrations of TGF-β1 (1-30 U/ml) and Oncostatin M (0.5-10 U/ml) were chosen which caused either no or only minimal growth inhibition when tested individually.

A375 cells [3] = test: Growth inhibitory assay of recombinant Oncostatin M (crystal violet staining); format: cell-based, human; conditions: for Oncostatin M activity in medium of transfected COS cells: further test, one unit inhibits growth of A375 cells by 50%; for Expression Level Units/ml (growth inhibitory activity): medium or extract of the expressing host cells (COS, CHO without methotrexate amplification, sf9)
Protocol: Biological activity of recombinant Oncostatin M was assessed by a growth inhibitory assay. Briefly, aliquots of extracts from transformed cells or medium from cell cultures were lyophilized with 20 μg bovine serum albumin as a carrier protein, resuspended in DMEM containing 10% fetal calf serum, and diluted serially before addition to 96-well cultures containing A375 cells (3.5×10^3 cells/well). […] Recombinant Oncostatin M was prepared using the following expression systems: E. coli, COS cells, CHO and insect cells (sf9).

**Q.** With Lys^3 bombesin as the molecule, how does the “Inhibitory activity towards binding of 125I-Oncostatin M” value (from here on “Inhibitory activity towards binding”) ([1]; competitor 50 μM) read?
**A.** None of these showed significant inhibitory activity

**Q.** “TGF-β1: highly purified transforming growth factor-β1, units of Mv1Lu growth inhibitory activity” was tested. Which “Inhibition of cell growth” value (A375 cells [2]; 3.4 U/ml, alone) did it give?
**A.** 7%

**Q.** Tyr^3 -bombesin was tested. Which “Inhibitory activity towards binding” value ([1]; competitor 1 μM) did it give?
**A.** None of these showed significant inhibitory activity

**Q.** With “epidermal growth factor: polypeptide growth factor tested as competitor” as the molecule, how does the “Inhibitory activity towards binding” value ([1]; competitor 2.5 μg/ml) read?
**A.** None of these showed significant inhibitory activity

**Q.** fibroblast growth factor was tested. Which “Inhibitory activity towards binding” value ([1]; competitor 2.5 μg/ml) did it give?
**A.** None of these showed significant inhibitory activity

**Q.** With formyl-M-L-F as the molecule, how does the “Inhibitory activity towards binding” value ([1]; competitor 50 μM) read?
**A.** None of these showed significant inhibitory activity

**Q.** Which “Inhibitory activity towards binding” value ([1]; competitor 50 μg/ml) does the source give for “interleukin 1-β: polypeptide growth factor tested as competitor” here?
**A.** None of these showed significant inhibitory activity

B1: gamma interferon: gamma-interferon; recombinant in the synergy tests (protein, UniProt P01579 24-161, looked up)
Interferon gamma: QDPYVKEAENLKKYFNAGHSDVADNGTLFLGILKNWKEESDRKIMQSQIVSFYFKLFKNFKDDQSIQKSVETIKEDMNVKFFNSNKKKRDDFEKLTNYSVTDLNVQRKAIHELIQVMAELSPAAKTGKRKRSQMLFRG
**Q.** With B1 as the molecule, how does the “Inhibitory activity towards binding” value ([1]; competitor 2.5 μg/ml) read?
**A.** None of these showed significant inhibitory activity

B2: ^125 I-Oncostatin M: Oncostatin M purified from TPA-treated U937 cells and radiolabeled with 125I by the iodogen method (protein, UniProt P13725 26-221, looked up)
Oncostatin-M: AAIGSCSKEYRVLLGQLQKQTDLMQDTSRLLDPYIRIQGLDVPKLREHCRERPGAFPSEETLRGLGRRGFLQTLNATLGCVLHRLADLEQRLPKAQDLERSGLNIEDLEKLQMARPNILGLRNNIYCMAQLLDNSDTAEPTKAGRGASQPPTPTPASDAFQRKLEGCRFLHGYHRFMHSVGRVFSKWGESPNRSRR
modifications: 125I label
notes: Oncostatin M purified from TPA-treated U937 cells and radiolabeled with 125I by the iodogen method
**Q.** With B2 as the molecule, how does the “Original biological activity retained after iodination” value (A375 cells [2]; growth inhibition assays) read?
**A.** approximately 85%

B3: plasmid pH3M containing just the Oncostatin M sequences: pH3M containing Oncostatin M sequences without the fused βTGF leader sequence (protein, UniProt P13725 26-221, looked up)
Oncostatin-M: B2 Oncostatin-M
**Q.** B3 was tested. Which “Oncostatin M activity in medium of transfected COS cells” value (A375 cells [3]) did it give?
**A.** No activity was detected

B4: pAc/OncM: Oncostatin M expressed under control of the baculovirus polyhedrin gene regulators (protein, UniProt P13725 26-221, looked up)
Oncostatin-M: B2 Oncostatin-M
modifications: baculovirus-expressed
notes: Oncostatin M expressed under control of the baculovirus polyhedrin gene regulators
**Q.** For B4, which “Expression Level Units/ml (growth inhibitory activity)” value (A375 cells [3]) is on record?
**A.** 1,800 GIA units/ml

B5: pH3M/βOncM: Oncostatin M with βTGF leader sequence fused to the coding sequence, secreted into medium (protein, UniProt P13725 26-221, looked up)
Oncostatin-M: B2 Oncostatin-M
modifications: expressed with TGF-beta leader sequence
**Q.** Which “Sp. Act” value (A375 cells [3]; E. coli fusion proteins purified and refolded before testing) does the source give for B5 here?
**A.** > 10,000 GIA units/ug protein

**Q.** What about the “Oncostatin M activity in medium of transfected COS cells” value (A375 cells [3]) of the same molecule?
**A.** approximately 18,000 units/ml

**Q.** What about the “Expression Level Units/ml (growth inhibitory activity)” value (A375 cells [3]) of the same molecule?
**A.** 56,000 GIA units/ml

B6: pSV2βOncM/dhfr: Human Oncostatin M gene fused to βTGF leader sequence, with mouse dhfr gene (protein, UniProt P13725 26-221, looked up)
Oncostatin-M: B2 Oncostatin-M
modifications: expressed with TGF-beta leader sequence
**Q.** B6 was tested. Which “Expression Level Units/ml (growth inhibitory activity)” value (A375 cells [3]) did it give?
**A.** 10,000 GIA units/ml
